According to US20240052064A1 (Bristol-Myers Squibb, published 2024):
Substitutions are numbered along the chain they refer to.

T1: BCMA (human, UniProt Q02223 1-54, limits assumed)
T1 construct: also called B cell maturation antigen; TNFRSF17
T1 sequence (looked up): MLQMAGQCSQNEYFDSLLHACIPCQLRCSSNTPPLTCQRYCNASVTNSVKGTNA

T2: BCMA on cells (JEKO cells, plasmablasts) (human, UniProt Q02223 1-184)
T2 sequence (looked up): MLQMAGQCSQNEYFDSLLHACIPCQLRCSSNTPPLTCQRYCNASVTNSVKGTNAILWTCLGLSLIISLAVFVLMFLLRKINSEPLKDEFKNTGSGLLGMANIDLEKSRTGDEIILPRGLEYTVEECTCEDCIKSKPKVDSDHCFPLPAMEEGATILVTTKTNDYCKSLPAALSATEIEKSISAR

T3: Human BCMA, TPP208 (human, UniProt Q02223 1-54, limits assumed)
T3 construct: also called Antigen 1
T3 sequence (looked up): T1 sequence (looked up)

B1: Mab101 (bispecific antibody, human IgG1, L234A L235A)
heavy 1: not shown
heavy 2: not shown
light 1: not shown
light 2: EVQLLESGGGLVQPGGSLRLSCAASGFTFSTYAMNWVRQAPGKGLEWVSRIRSKYNNYATYYADSVKGRFTISRDDSKNTLYLQMNSLRAEDTAVYYCVRHGNFGNSYVSWFAYWGQGTLVTVSSASVAAPSVFIFPPSDEQLKSGTASVVCLLNNFYPREAKVQWKVDNALQSGNSQESVTEQDSKDSTYSLSSTLTLSKADYEKHKVYACEVTHQGLSSPVTKSFNRGEC
notes: also called BCMA TCE; BCMA T cell engager
B2: CC-93269 (bispecific antibody, human IgG1, kappa, L234A L235A)
heavy 1: not shown
heavy 2: EVQLLESGGGLVQPGGSLRLSCAASGFTFSDNAMGWVRQAPGKGLEWVSAISGPGSSTYYADSVKGRFTISRDNSKNTLYLQMNSLRAEDTAVYYCAKVLGWFDYWGQGTLVTVSSASTKGPSVFPLAPSSKSTSGGTAALGCLVEDYFPEPVTVSWNSGALTSGVHTFPAVLQSSGLYSLSSVVTVPSSSLGTQTYICNVNHKPSNTKVDEKVEPKSCDKTHTCPPCPAPEAAGGPSVFLFPPKPKDTLMISRTPEVTCVVVDVSHEDPEVKFNWYVDGVEVHNAKTKPREEQYNSTYRVVSVLTVLHQDWLNGKEYKCKVSNKALGAPIEKTISKAKGQPREPQVCTLPPSRDELTKNQVSLSCAVKGFYPSDIAVEWESNGQPENNYKTTPPVLDSDGSFFLVSKLTVDKSRWQQGNVFSCSVMHEALHNHYTQKSLSLSPGK
light 1: EIVLTQSPGTLSLSPGERATLSCRASQSVSDEYLSWYQQKPGQAPRLLIHSASTRATGIPDRFSGSGSGTDFTLAISRLEPEDFAVYYCQQYGYPPDFTFGQGTKVEIKRTVAAPSVFIFPPSDRKLKSGTASVVCLLNNFYPREAKVQWKVDNALQSGNSQESVTEQDSKDSTYSLSSTLTLSKADYEKHKVYACEVTHQGLSSPVTKSFNRGEC
light 2: B1 light 2
notes: also called 42-TCBcv; BCMA TCE
B3: Mab102 (bispecific antibody, human IgG1, L234A L235A)
heavy 1: EVQLLESGGGLVQPGGSLRLSCAASGFTFSDNAMGWVRQAPGKGLEWVSAISGPGSSTYYADSVKGRFTISRDNSKNTLYLQMNSLRAEDTAVYYCAKVLGWFDYWGQGTLVTVSSASTKGPSVFPLAPSSKSTSGGTAWLGCEVTDYFPEPVTVSWNSGALTSGVHTFPAVLESSGLYSLSSVVTVPSSSLGTQTYICNVNHKPSNTKVDKKVEPKSCDKTHTCPPCPAPEAAGGPSVFLFPPKPKDTLMISRTPEVTCVVVDVSHEDPEVKFNWYVDGVEVHNAKTKPREEQYNSTYRVVSVLTVLHQDWLNGKEYKCKVSNKALGAPIEKTISKAKGQPREPQVYVYPPSREEMTKNQVSLTCLVKGFYPSDIAVEWESNGQPENNYKTTPPVLDSDGSFALVSKLTVDKSRWQQGNVFSCSVMHEALHNHYTQKSLSLSPG
heavy 2: EVQLLESGGGLVQPGGSLRLSCAASGFTFSDNAMGWVRQAPGKGLEWVSAISGPGSSTYYADSVKGRFTISRDNSKNTLYLQMNSLRAEDTAVYYCAKVLGWFDYWGQGTLVTVSSASTKGPSVFPLAPSSKSTSGGTAWLGCEVTDYFPEPVTVSWNSGALTSGVHTFPAVLESSGLYSLSSVVTVPSSSLGTQTYICNVNHKPSNTKVDKKVEPKSCDGGGGSGGGGSQAVVTQEPSLTVSPGGTVTLTCGSSTGAVTTSNYANWVQEKPGQAFRGLIGGTNKRAPGTPARFSGSLLGGKAALTLSGAQPEDEAEYYCALWYSNLWVFGGGTKLTVLSSASTKGPSVFPLAPSSKSTSGGTAALGCLVKDYFPEPVTVSWNSGALTSGVHTFPAVLQSSGLYSLSSVVTVPSSSLGTQTYICNVNHKPSNTKVDKKVEPKSCDKTHTCPPCPAPEAAGGPSVFLFPPKPKDTLMISRTPEVTCVVVDVSHEDPEVKFNWYVDGVEVHNAKTKPREEQYNSTYRVVSVLTVLHQDWLNGKEYKCKVSNKALGAPIEKTISKAKGQPREPQVYVLPPSREEMTKNQVSLLCLVKGFYPSDIAVEWESNGQPENNYLTWPPVLDSDGSFFLYSKLTVDKSRWQQGNVFSCSVMHEALHNHYTQKSLSLSPG
light 1: EIVLTQSPGTLSLSPGERATLSCRASQSVSSYYLAWYQQKPGQAPRLLISGAGSRATGIPDRFSGSGSGTDFTLTISRLEPEDFAVYYCQQYGYPPDFTFGQGTKVEIKRTVAAPSVAIFPPSDERLKSGTASVVCVLNNFYPREAKVQWKVDNALQSGNSQESVTEQDSKDSTYSLSSRLTLSKADYEKHKVYACEVTHQGLSSPVTKSFNRGEC
light 2: B1 light 2
notes: as for B1
B4: 83A10-TCBcv (bispecific antibody, human IgG1, kappa, L234A L235A)
heavy 1: not shown
heavy 2: not shown
light 1: not shown
light 2: B1 light 2
B5: 22-TCBcv (bispecific antibody, human IgG1, kappa, L234A L235A)
heavy 1: not shown
heavy 2: B2 heavy 2
light 1: B3 light 1 with A118F, E125R, R126K, V137L, R180T
light 2: B1 light 2

Columns and labels:
[1] = target: T1, BCMA
[2] = target: T2, BCMA on cells (JEKO cells, plasmablasts); test: cell-based or functional assay
[3] = target: T2, BCMA on cells (JEKO cells, plasmablasts); test: cell-based or functional assay; remark: listed apart in the source
[4] = target: T2, BCMA on cells (JEKO cells, plasmablasts); test: cell-based or functional assay; remark: listed apart in the source
[5] = target: T3, Human BCMA, TPP208; test: SPR (Biacore T200), single-cycle kinetics, antibody captured on anti-human IgG, antigen injected; sensorgram of sample stored at pH 4, 40 C compared with the non-stressed standard
Experimental: (§1) SPR experiments were performed using a Biacore T200 system (GE Healthcare, Uppsala, Sweden) with analysis and sample compartment temperatures set at 25° C. and 7° C. respectively.
(§2) Anti-Human IgG (from anti-human IgG Capture Kit) was amine coupled to the surface of a CM5 chip according to the manufacturer's instructions. Molecule bispecific antibodies diluted to 1 μg/mL in running buffer were captured on the chip surface in a 60 s injection. Following the single-cycle kinetics procedure, antigen was next injected five times (30 s per injection) at incrementally increasing concentrations at a flow rate of 30 μL/min. Antigen concentrations ranged from 0.08 to 50 nM for BCMA and between 12.7 to 1000 nM for CD3. A 300 s dissociation time was added after the last antigen injection. Following each experiment, all flow cells were regenerated using a 30 s injection of 3M MgCl₂.
(§3) Prior to analysis, data were double referenced by first subtracting data from a reference flow cell and then subtracting a blank cycle where buffer was injected instead of antigen. The sensorgram comparison analysis was implemented using a Biacore T200 (software version 3.0). All data were normalized with respect to the response where 100% reflects the maximum binding obtained during injection and 0% reflects the baseline. Average and ±3 standard deviation (SD) sensorgrams were calculated from ten or more independent sensorgrams of each molecule's non-stressed material (standard). For quantitation of binding similarities of the stressed samples against the corresponding non-stressed standard, sample sensorgrams were co-evaluated with the sensorgrams of the standard. The degree of similarity was calculated based on how many sample data points fell inside or outside the ±3 standard deviation limits according to Equation 2, where SSQ is the sum of squares (Karlsson, R, Pol, E., and Frostell, A. (2016); Analytical Biochemistry 502, 53-63).

[6] = target: T4, Human CD3ED, TPP401 (human, UniProt P07766 23-126; P04234 22-105); test: as above
T4 construct: 'CD3ED' is read here as the CD3 epsilon/delta pair; also called Antigen 2
T4 sequence (P07766 23-126, chain 1 of 2): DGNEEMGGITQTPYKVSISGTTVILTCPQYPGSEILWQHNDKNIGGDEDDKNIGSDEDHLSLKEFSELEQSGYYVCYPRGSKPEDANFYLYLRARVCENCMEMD
T4 sequence (P04234 22-105, chain 2 of 2): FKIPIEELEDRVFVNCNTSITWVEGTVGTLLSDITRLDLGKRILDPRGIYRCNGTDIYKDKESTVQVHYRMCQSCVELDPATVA
Experimental: as §1, §2, §3

[7] = target: T3, Human BCMA, TPP208; test: SPR (Biacore T200), single-cycle kinetics, antibody captured on anti-human IgG, antigen injected; sensorgram of sample stored at pH 6, 40 C compared with the non-stressed standard
Experimental: as §1, §2, §3

[8] = target: T4, Human CD3ED, TPP401; test: as above
Experimental: as §1, §2, §3

[9] = target: T3, Human BCMA, TPP208; test: SPR (Biacore T200), single-cycle kinetics, antibody captured on anti-human IgG, antigen injected; sensorgram of sample stored at pH 8, 40 C compared with the non-stressed standard
Experimental: as §1, §2, §3

[10] = target: T4, Human CD3ED, TPP401; test: as above
Experimental: as §1, §2, §3

[11] = target: T3, Human BCMA, TPP208; test: SPR (Biacore T200), single-cycle kinetics, antibody captured on anti-human IgG, antigen injected; sensorgram of sample stored at pH 6 with tert-butyl peroxide, 40 C compared with the non-stressed standard
Experimental: as §1, §2, §3

[12] = target: T4, Human CD3ED, TPP401; test: as above
Experimental: as §1, §2, §3

[13] = target: T2, BCMA on cells (JEKO cells, plasmablasts); test: cell-based or functional assay; remark: listed apart in the source
[14] = target: T2, BCMA on cells (JEKO cells, plasmablasts); test: cell-based or functional assay; remark: listed apart in the source

Binder	Kd [1] [nM]	EC50 for JEKO cell killing (nM), T cell-mediated, annexin V, 20 h, T:E 1:2 [2] [nM]	EC50 for BM plasmablast killing (nM), bone marrow mononuclear cells, 24 h [3] [nM]	EC50 PB killing (nM), AAV-1 (n = 1) [4] [nM]	pH 4 SPR % similarity-BCMA [5] [%]	pH 4 SPR % similarity-CD3 [6] [%]	pH 6 SPR % similarity-BCMA [7] [%]	pH 6 SPR % similarity-CD3 [8] [%]	pH 8 SPR % similarity-BCMA [9] [%]	pH 8 SPR % similarity-CD3 [10] [%]	pH 6-TBP SPR % similarity-BCMA [11] [%]	pH 6-TBP SPR % similarity-CD3 [12] [%]	also measured
B1	1.1	5.72	0.266	0.236	100	99.9	100	100	99.9	71.5	82.5	75.3	EC50 PB killing (nM), healthy volunteers (n = 2) [4]: 0.257 nM
B2	0.14	2.79	0.0201	0.01									EC50 for plasmablast killing in AAV, PBMC, 24 h [13]: 0.007 nM; EC50 for plasmablast killing in RA, PBMC, 24 h [13]: 0.001 nM; EC50 for plasmablast killing in SLE (n=5), PBMC, 24 h [13]: 0.01 nM; EC50 for plasmablast killing in healthy volunteers (n=12), PBMC, 24 h [13]: 0.005 nM; EC50 PB killing (nM), healthy volunteers (n = 6) [4]: 0.029 nM; Plasmablast depletion EC50 (nM), PBMC from healthy volunteers, soluble BCMA 0 ng/ml [14]: 0.005 nM; Plasmablast depletion EC50 (nM), PBMC from healthy volunteers, soluble BCMA 16.8 ng/ml [14]: 0.025 nM; Plasmablast depletion EC50 (nM), PBMC from healthy volunteers, soluble BCMA 33.6 ng/ml [14]: 0.13 nM; Plasmablast depletion EC50 (nM), PBMC from healthy volunteers, soluble BCMA 67.6 ng/ml [14]: 0.32 nM
B3	0.06	0.12	0.00281	0.003	100	100	99.4	100	95.7	70.1	54	72.3	EC50 PB killing (nM), healthy volunteers (n = 3) [4]: 0.007 nM
B4					99.4	100	100	99.9	90.8	57.5	72	59.7	
B5					84.8	99.6	99.8	99.5	95.8	59.5	71.9	58.5	
